Measured values published in publication PMC11271964, “Design and characterization of hyperactive mutants of the Agrobacterium tumefaciens telomere resolvase, TelA”.
Substitutions are numbered along the chain they refer to.

Columns and labels:
[1] = molecular target: TelA (107–442) N-terminal domain deletion mutant with the E337K mutation (Agrobacterium tumefaciens)
[2] = molecular target: T1, TelA (ΔN) (Agrobacterium tumefaciens, UniProt Q7CWV1 107-442); test: EMSA; 2 mM Ca2+; EMSA: HEPES pH 7.6, 1 mM DTT, 2 mM CaCl2, 100 ug/mL BSA, 50 mM potassium glutamate, 0.8 ug/mL supercoiled pUC19 competitor, 76 ng/mL heparin sulphate, 2 nM labeled rTel, 0 C; conditions: protein: recombinant
T1 sequence: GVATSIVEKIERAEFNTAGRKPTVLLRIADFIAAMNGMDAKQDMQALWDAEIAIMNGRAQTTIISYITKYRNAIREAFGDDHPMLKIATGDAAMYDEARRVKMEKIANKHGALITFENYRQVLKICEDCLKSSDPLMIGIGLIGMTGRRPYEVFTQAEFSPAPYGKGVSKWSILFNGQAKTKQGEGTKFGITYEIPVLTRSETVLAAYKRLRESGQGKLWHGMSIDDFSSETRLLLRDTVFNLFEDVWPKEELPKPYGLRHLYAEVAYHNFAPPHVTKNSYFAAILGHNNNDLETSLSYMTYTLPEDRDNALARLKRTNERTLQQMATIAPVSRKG

[3] = molecular target: T2, TelA (ΔC3; D202AE337K) (Agrobacterium tumefaciens, UniProt Q7CWV1 1-439, D202A;E337K); test: as above; conditions: protein: recombinant; chain copies: 2; label: 5'-fluorescein on strand 1; 5' overhang 2 nt at both ends
T2 sequence: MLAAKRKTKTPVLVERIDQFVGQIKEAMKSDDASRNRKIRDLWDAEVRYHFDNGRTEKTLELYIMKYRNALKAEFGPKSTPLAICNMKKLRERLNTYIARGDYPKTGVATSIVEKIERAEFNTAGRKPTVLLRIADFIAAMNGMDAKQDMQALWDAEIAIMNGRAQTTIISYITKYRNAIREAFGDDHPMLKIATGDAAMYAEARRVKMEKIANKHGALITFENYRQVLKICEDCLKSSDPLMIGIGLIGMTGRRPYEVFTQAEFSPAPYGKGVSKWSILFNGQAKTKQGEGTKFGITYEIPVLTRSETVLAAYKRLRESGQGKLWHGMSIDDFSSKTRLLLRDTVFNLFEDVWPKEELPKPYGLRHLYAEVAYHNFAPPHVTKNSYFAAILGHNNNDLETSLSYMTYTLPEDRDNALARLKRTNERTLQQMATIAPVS

[4] = molecular target: T3, TelA N-terminal domain (N; K9E) (Agrobacterium tumefaciens, UniProt Q7CWV1 1-106, K9E); test: as above; conditions: protein: recombinant; label: 5'-fluorescein on strand 1; 5' overhang 2 nt at both ends
T3 sequence: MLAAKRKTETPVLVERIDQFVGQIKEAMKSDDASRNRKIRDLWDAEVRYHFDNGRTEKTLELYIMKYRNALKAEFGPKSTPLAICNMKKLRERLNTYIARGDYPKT

[5] = molecular target: T4, TelA (ΔNΔC3; D202RE337K) (Agrobacterium tumefaciens, UniProt Q7CWV1 107-439, D202R;E337K); test: as above; conditions: protein: recombinant; chain copies: 2; label: 5'-fluorescein on strand 1; 5' overhang 2 nt at both ends
T4 sequence: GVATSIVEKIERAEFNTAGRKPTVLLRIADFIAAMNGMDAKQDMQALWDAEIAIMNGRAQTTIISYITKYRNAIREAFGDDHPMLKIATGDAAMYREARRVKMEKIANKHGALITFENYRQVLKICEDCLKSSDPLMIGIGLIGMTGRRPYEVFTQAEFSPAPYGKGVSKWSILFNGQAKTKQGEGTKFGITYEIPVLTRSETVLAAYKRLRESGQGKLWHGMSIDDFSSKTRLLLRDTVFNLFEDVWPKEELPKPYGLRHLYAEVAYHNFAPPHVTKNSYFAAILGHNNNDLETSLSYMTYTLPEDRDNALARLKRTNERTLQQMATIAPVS

[6] = molecular target: T5, TelA wild type (Agrobacterium tumefaciens, UniProt Q7CWV1 1-442); test: EMSA; 2 mM Ca2+; c1 and c2 complexes; EMSA: HEPES pH 7.6, 1 mM DTT, 2 mM CaCl2, 100 ug/mL BSA, 50 mM potassium glutamate, 0.8 ug/mL supercoiled pUC19 competitor, 76 ng/mL heparin sulphate, 2 nM labeled rTel, 0 C; conditions: protein: recombinant; chain copies: 2; label: 5'-fluorescein on strand 1; 5' overhang 2 nt at both ends
T5 sequence: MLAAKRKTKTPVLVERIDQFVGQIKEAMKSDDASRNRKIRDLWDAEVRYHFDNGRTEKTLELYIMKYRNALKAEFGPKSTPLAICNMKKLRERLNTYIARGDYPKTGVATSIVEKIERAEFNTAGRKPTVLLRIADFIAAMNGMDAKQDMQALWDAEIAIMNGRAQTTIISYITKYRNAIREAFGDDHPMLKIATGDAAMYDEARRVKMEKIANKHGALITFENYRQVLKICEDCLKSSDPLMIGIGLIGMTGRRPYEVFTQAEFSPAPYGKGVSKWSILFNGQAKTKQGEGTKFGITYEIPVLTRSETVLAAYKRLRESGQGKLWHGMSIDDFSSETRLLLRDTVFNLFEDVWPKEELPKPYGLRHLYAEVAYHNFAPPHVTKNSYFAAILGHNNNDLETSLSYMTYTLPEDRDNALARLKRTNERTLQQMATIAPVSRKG

[7] = molecular target: T6, TelA N-terminal domain (N) (Agrobacterium tumefaciens, UniProt Q7CWV1 1-106); test: EMSA; 2 mM Ca2+; laddering bandshift; EMSA: HEPES pH 7.6, 1 mM DTT, 2 mM CaCl2, 100 ug/mL BSA, 50 mM potassium glutamate, 0.8 ug/mL supercoiled pUC19 competitor, 76 ng/mL heparin sulphate, 2 nM labeled rTel, 0 C; conditions: protein: recombinant; label: 5'-fluorescein on strand 1; 5' overhang 2 nt at both ends
T6 sequence: T3 sequence with E9K

## TelA (1–106) N-terminal domain with the K9E mutation (from UniProt A0A822V2W1 1-106) (domain or fragment)
[1]
  fold reduction of the initial rate of telomere resolution by (ΔN; E337K) at 0°C when (N; K9E) is added in trans: 10 fold

## TelA (1–106), N-terminal domain of the Agrobacterium tumefaciens telomere resolvase TelA (from UniProt A0A822V2W1 1-106) (domain or fragment)
[1]
  fold reduction of the initial rate of telomere resolution by (ΔN; E337K) at 0°C when the N-terminal domain (N, 800 nM, about 10-fold molar excess) is added in trans: 22 fold

B1: hairpin telomere (hp), OKBA28F (structured_DNA)
DNA: ATCCCTCTAACCATTGCGCGATCGATCATAATAACAATATCATGATATTGTTATTATGATCGATCGCGCAATGGTTAGAGG
[2]; label: 5'-fluorescein, hairpin, 5' overhang 3 nt
  binding result: no binding

B2: rTel (OGCB951F/OGCB952) (dsDNA)
DNA 1: AACTCTAACCATTGCGCGATCGATCATAATAACAATATCATGATATTGTTATTGTAATCGATCGCGGATCCCGGGCGTAGCCACGTAGGT
DNA 2: GAACCTACGTGGCTACGCCCGGGATCCGCGATCGATTACAATAACAATATCATGATATTGTTATTATGATCGATCGCGCAATGGTTAGAG
[3]
  binding result: binds
[4]
  binding result: no binding
[5]
  binding result: binds
[2]; chain copies: 2, label: 5'-fluorescein on strand 1, 5' overhang 2 nt at both ends
  binding result: no binding
[6]
  binding result: binds
[7]
  binding result: binds
